We go through two substances from paper PMC4102767.

In test [1] the target is Dpb11 (UniProt P47027). The test is described as follows: anti-Flag co-IP, Western blot. Conditions: reference: wild type (undamaged or MMS); sites S486. A general note: A western blot detects proteins with antibodies after separation by electrophoresis.
Test [2] concerns the target Dpb11 (UniProt P47027). The test is described as follows: Flag purification, SILAC quantitative MS. Conditions: reference: wild type; sites S486.

With “Slx4 (from UniProt Q12098) S486A (undamaged or MMS)”, the “binding against the reference” value with Dpb11 [1] is listed as “weaker”.

As for Slx4 (from UniProt Q12098) S486A, the fold change result with Dpb11 [2] is reported as “weaker”.
